Measurements from the supplement of paper PMC12764529.
± gives the half width of the 95% confidence interval.

What was measured:
[1] = folding stability dG unfold from trypsin proteolysis; higher = more stable
Procedure: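 Folding stability of de novo designed mini-proteins (<80 aa, no Cys; designed by TrROS, TrMRF, ProteinMPNN and the joint model) was measured by cDNA display proteolysis with trypsin and chymotrypsin. Each protease was used at 11 concentrations in a threefold dilution series plus a no-protease condition. K50 was inferred by Bayesian fitting of sequencing counts, and dG unfold was derived against a sequence-predicted unfolded-state K50 (Tsuboyama et al. method). Sequences shown include variable-length N-terminal GS-type padding (SAGGSAGG...) inside a display construct carrying a PA tag. Rows were kept only if the AF2 dimer inter-PAE was >15, to exclude likely homo-oligomers.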

[2] = folding stability dG unfold (combined trypsin and chymotrypsin); higher = more stable
Method in brief: (§1)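 Unfolding free energy was derived, per protease or combined, against a sequence-predicted unfolded-state K50 and a shared folded-state K50, starting from K50 inferred by Bayesian fitting of sequencing counts. Digestion with trypsin and chymotrypsin was carried out on designed mini-proteins under 80 residues without cysteine in a PA-tagged cDNA display construct. Only designs with AlphaFold2 dimer inter-PAE above 15 were kept.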

[3] = folding stability dG unfold from chymotrypsin proteolysis; higher = more stable
Method in brief: as §1

| Sequence | folding stability dG unfold [1] | folding stability dG unfold [2] | folding stability dG unfold [3] |
| --- | --- | --- | --- |
| DWKTRTVMFPVPPGDLEEAKDRAKELAKELPPGNKIEIEMPNPDGHYFMVTVTVDPNGEIDIDVSPGMRPIS [r1_350_TrROS] | -0.418 ± 0.29 kcal/mol | -0.547 ± 0.38 kcal/mol |  |
| GMAEELAVEKAKEYLAPIPKPYEIDPEKKTVTLPGGGPLKTIPILVTVKDENGNVIKVIEVPIKVVSIPPGS [r1_318_JUSTAS] | 0.0543 ± 0.093 kcal/mol | -0.159 ± 0.25 kcal/mol |  |
| MAVTPEVLERMREEGVPEEVLAELGEVAVPSSDPRPEYIAELRALPGVSEVSPIPPTDPAALAALPERLLES [r1_248_JUSTAS] | -0.884 ± 0.54 kcal/mol | < -1 kcal/mol |  |
| MHKVEHTIKHPGYEIKIEVTMYPNPNGNYYVPIKIEREDPKDNKPKKKPIMVPFPPGDPDDFVDWALEEILS [r1_171_TrROS] | -0.189 ± 0.17 kcal/mol | -0.207 ± 0.55 kcal/mol |  |
| SAASTLKATLRPPDGSTLDVTVLDPGEGWLLQLGDGSERVSPEELEALLANDPSLVVEELTELPLEELSSAG [r14_336_JUSTAS] | 0.175 ± 0.05 kcal/mol | -0.654 ± 0.2 kcal/mol |  |
| SAAVSFTPDGRPRRLEPVPPVPPVIEIPVPLNIPESDPAKKEALRKEIKEKIMKELGLPESVPVKVILLSAG [r14_453_JUSTAS] | 0.199 ± 0.15 kcal/mol | -0.158 ± 0.55 kcal/mol |  |
| SAEIEELARKLAEELGAEVVEVKVEKLPNGTVKVTVVVRVNGELYKVTIEYDKETKEITIKIEKLPEEESAG [r14_784_TrROS_Hall] | 3.81 ± 0.48 kcal/mol | > 6 kcal/mol |  |
| SAGGGGMPAVKEEVTPVPGGVLTTTTLPDGSVKVTVSPPSGPAVASATKPVPSGSSVTVTVTLRPAALSAGG [r13_584_JUSTAS] | 0.367 ± 0.019 kcal/mol | -0.335 ± 0.087 kcal/mol |  |
| SAGGSAGGSAGGKKKKKKVSINIRGGMSVEEVKGKAQELQSQGDPDVKEVKIHISPNMWSAGGSAGGSAGGS [r10_233_TrROS] | 0.33 ± 0.11 kcal/mol |  |  |
| SAGGSAGGSAGGSMVAKELAEKIGAKVEGVEVKPIFDPEGKPVSEELKAKIEVLPPDYPLSAGGSAGGSAGG [r7_650_JUSTAS] | -0.537 ± 0.19 kcal/mol |  |  |
| SAGGSAGGSAGGTAEELKEKLPDVEFVPLEELENSVLILAKPPGGPVKLILVDGDKVVVASAGGSAGGSAGG [r7_25_TrMRF] | 0.322 ± 0.097 kcal/mol |  |  |
| SAGSMTSFPLTLPGGEKISSISVTASPGTEYTTNATLSKDKSKTVTINFDIKPGGEKVVKNISVTTPEESAG [r14_705_JUSTAS] |  | -0.0181 ± 0.1 kcal/mol | 0.391 ± 0.2 kcal/mol |
| SAGSVTPLPNGEVVTLTTEKIGNEVYLVTKTTLPDGSVETETTPLKPTPPPPAVPVDVSNPYRAKLALASAG [r5_715_JUSTAS] |  | -0.814 ± 0.33 kcal/mol | -0.472 ± 0.35 kcal/mol |
| SAGTKTIMGRPDDLPEAIEEALDKGPDLKKVKIYWGGREREIPLGDKIKITEPMPNPNGPPFMMIEIEDSAG [r5_130_TrROS] |  | < -1 kcal/mol | -0.486 ± 0.38 kcal/mol |
| SAGTTTITVPASEASEEEVQALIDEIEAANPHLKVKEVKETVVPLPTPKPVRLRTIIINAELPLPPELLSAG [r5_835_JUSTAS] |  | -0.132 ± 0.47 kcal/mol | 0.447 ± 0.18 kcal/mol |
| SAGVEVTSTSVDYTLDSSSPSPLRSSASPVRSAPPVEERPVELVDPSGERRLVTLKEIDPEKGGRVLSGSAG [r5_735_JUSTAS] |  | 0.185 ± 0.24 kcal/mol | 0.229 ± 0.26 kcal/mol |
| SAGVRKIPIESADDLRDEIDKSPGPVIIRNKGNKKYHRIDPDDLNNFAKNGAPIEIMPPDEMPPEMRKQSAG [r5_677_TrROS] |  | -0.332 ± 0.17 kcal/mol | -0.0447 ± 0.14 kcal/mol |

| Sequence | folding stability dG unfold [1] | folding stability dG unfold [2] | folding stability dG unfold [3] |
| --- | --- | --- | --- |
| SAKKVKIKVVEIEKKEDYVLIKIKLEKNVKKGEKVKIIIKNKNGEKKEITIKNGYIYIKMKKKDIEIKISAG [r14_350_TrROS_Hall] |  | 3.93 ± 0.85 kcal/mol | 4.1 ± 0.29 kcal/mol |
| SAMEELAKKLKELFPNLEIVSIEEEEVEVEGKKRKVLRIKIKNKNGELLEIEFETPEDKEIAELLKKLLSAG [r14_143_TrROS_Hall] |  | > 6 kcal/mol | 5.53 ± 0.15 kcal/mol |
| SAMELVLEESTELAEDPTNPGVLVPRTTTRELPVEPPPVVVIGSEENAKKLKKKGEVEVPPSGIILIPLSAG [r14_582_JUSTAS] |  | 0.137 ± 0.24 kcal/mol | 0.517 ± 0.21 kcal/mol |
| SAMPITVTVKKTVTLPPPGPEHQKLLDPNGTVRTVTVEETETITVSPEEIEKVKEEAEAKGIEEVTVVDSAG [r14_509_JUSTAS] |  | 0.267 ± 0.15 kcal/mol | 0.732 ± 0.051 kcal/mol |
| SDKDEKVIPSTSTSTDPETGTVTTTSTNTTITKGKIISPTTVTTTYPTATTTTTSTTIVDPNGNITTINSSA [r9_1015_JUSTAS] |  | 0.299 ± 0.14 kcal/mol | 0.97 ± 0.042 kcal/mol |
| SDLQWEFPVKKPKDQAEQAVEKAKKEFPGFKEVDDIDVERNPDNYRIKMRIRDDKMPPEVADKLRKALQDSA [r9_195_TrROS] |  | < -1 kcal/mol | -0.454 ± 0.46 kcal/mol |
| SGGATVEAFRRAPPGVRARILVEERGEELIVRLEIEGDDRRDEAEFPDPEEALARLLAAGVPVVVDELPASA [r9_1021_TrMRF] |  | < -1 kcal/mol | -0.708 ± 0.76 kcal/mol |
| SKKRILIVTDEKDLSPEEAAKLLEELGIEEVKVVKSAEELKNLPPEVDEVIVVTPPPPVKVEFSPEELEKSA [r9_750_TrROS_Hall] |  | -0.626 ± 0.43 kcal/mol | -0.309 ± 0.069 kcal/mol |
| SMKVLEGEEEAKKLAEEEGVPVIPVPADVSLEEIKKRIKETPGFPPDTVVATVIPKEPGRTTVIVLPLGKSA [r9_314_JUSTAS] |  | 0.0112 ± 0.1 kcal/mol | 0.474 ± 0.035 kcal/mol |
| SNLKIKWPNGHEIPIQKNNENVRIKFPGNGQEHPIPKEALEDNTPEEILDHLRDHFRQHGMPPMPVEIEKSA [r9_1211_TrROS] |  | 0.192 ± 0.38 kcal/mol | 0.602 ± 0.083 kcal/mol |
| SNVFPMEMTITVPVRDPKNGKKKTVDIPVPMYYRMEPEPYPDGKREMEPIPMEQFLEEIRRQAKELAKKGSA [r9_698_TrROS] | 0.764 ± 0.21 kcal/mol |  |  |
| SPEFKIAEVRVEAFPDGTVKAEVRFEGGTETAVFDAPVDPETGVVPVRARIYNPETGEVSEFTATGRIGASA [r9_825_TrMRF] |  | -0.325 ± 0.17 kcal/mol | 0.0658 ± 0.16 kcal/mol |
| SPKWKPIAEIPFKNGDPDEFIDKLKDAFPPDPPVQITFNGPDGPPMRIWIDPDEGRIDDIYPGGQIRIIPSA [r9_853_TrROS] |  | < -1 kcal/mol | -0.986 ± 0.39 kcal/mol |
| SSSMTIAKTEVETYPDGVIRTKETFPGSDTYREFDIPVDPSTGKMPVKSTLYDPKTGKSIETTSEIELLESA [r9_825_JUSTAS] |  | -0.884 ± 0.64 kcal/mol | -0.537 ± 0.33 kcal/mol |
| SVITANDIKEMRKLGIEPIEHDPDNRYRFKFPRMNQPIEVEVKPVPPPPPIEIPDNMDSPEEADKWQDTFSA [r9_649_TrROS] |  | 0.259 ± 0.23 kcal/mol | 0.565 ± 0.16 kcal/mol |
| SVPVTDETLYPDPSNALPISLVSQLGPDGSSVTTSITLPGRSMTQSVDPSTGRVTGNYPGTGLSSTVTSVPS [r1_125_JUSTAS] |  | 0.0698 ± 0.11 kcal/mol | 0.348 ± 0.051 kcal/mol |
